The target in assay [1] is Etanercept (UniProt P20333). In words: SEC-MALS; untreated formulation diluted 25 times in water to 2 mg/ml; BioResolve SEC mAb column, 50 mM phosphate buffer pH 7, 200 mM KCl, 30°C, 0.5 ml/min.
Assay [2] concerns the target Etanercept (UniProt P20333). Briefly: SEC-MALS; formulation after forced degradation (stirring at 600 rpm, 60°C, 2 h); BioResolve SEC mAb column, 50 mM phosphate buffer pH 7, 200 mM KCl, 30°C, 0.5 ml/min. In general terms: In gel filtration, larger molecules generally elute earlier.

With “Etanercept (from UniProt P20333 23-257) (Fc fusion)”, the stoichiometry N is 3 in the assay with Etanercept [1] and 23 with Etanercept [2].

Usually stoichiometry N stands for the number of molecules, sites or subunits per partner or assembly.

(Values after article PMC8686473.)
